This note sets out measurements from doi:10.1101/2023.12.21.572878.

Values joined by “and” are separate entries in the source; they are usually repeats but may differ in a detail not shown here. Equal values may be shown once.

For one assay, the target named is Streptavidin (UniProt P22629). Briefly: mass photometry.
Assay [1] deals with Dimeric kinesin K401-BIO-H6 (Drosophila | E. coli) (UniProt P17210). Briefly: mass photometry.

Usually stoichiometry N stands for the number of molecules, sites or subunits per partner or assembly.

Sequence of Streptavidin (P22629 25-183): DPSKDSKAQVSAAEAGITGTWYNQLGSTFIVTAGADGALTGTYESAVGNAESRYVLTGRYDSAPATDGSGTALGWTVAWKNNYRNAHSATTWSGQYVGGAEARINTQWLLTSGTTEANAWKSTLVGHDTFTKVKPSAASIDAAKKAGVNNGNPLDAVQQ

On to “Dimeric kinesin K401-BIO-H6 (from UniProt P17210 1-401)”, for which the stoichiometry N (kinesin dimers per streptavidin tetramer) in the assay with Streptavidin is 1 and 2 and 3. In assay [1], this substance gave a stoichiometry N of 2.
